Measured values from patent publication US20060154859A1.

Target: mouse LEPRb (mouse), P48356
Assay: cell-based or functional assay

Sequence of mouse LEPRb (mouse), P48356 (P48356 22-1162): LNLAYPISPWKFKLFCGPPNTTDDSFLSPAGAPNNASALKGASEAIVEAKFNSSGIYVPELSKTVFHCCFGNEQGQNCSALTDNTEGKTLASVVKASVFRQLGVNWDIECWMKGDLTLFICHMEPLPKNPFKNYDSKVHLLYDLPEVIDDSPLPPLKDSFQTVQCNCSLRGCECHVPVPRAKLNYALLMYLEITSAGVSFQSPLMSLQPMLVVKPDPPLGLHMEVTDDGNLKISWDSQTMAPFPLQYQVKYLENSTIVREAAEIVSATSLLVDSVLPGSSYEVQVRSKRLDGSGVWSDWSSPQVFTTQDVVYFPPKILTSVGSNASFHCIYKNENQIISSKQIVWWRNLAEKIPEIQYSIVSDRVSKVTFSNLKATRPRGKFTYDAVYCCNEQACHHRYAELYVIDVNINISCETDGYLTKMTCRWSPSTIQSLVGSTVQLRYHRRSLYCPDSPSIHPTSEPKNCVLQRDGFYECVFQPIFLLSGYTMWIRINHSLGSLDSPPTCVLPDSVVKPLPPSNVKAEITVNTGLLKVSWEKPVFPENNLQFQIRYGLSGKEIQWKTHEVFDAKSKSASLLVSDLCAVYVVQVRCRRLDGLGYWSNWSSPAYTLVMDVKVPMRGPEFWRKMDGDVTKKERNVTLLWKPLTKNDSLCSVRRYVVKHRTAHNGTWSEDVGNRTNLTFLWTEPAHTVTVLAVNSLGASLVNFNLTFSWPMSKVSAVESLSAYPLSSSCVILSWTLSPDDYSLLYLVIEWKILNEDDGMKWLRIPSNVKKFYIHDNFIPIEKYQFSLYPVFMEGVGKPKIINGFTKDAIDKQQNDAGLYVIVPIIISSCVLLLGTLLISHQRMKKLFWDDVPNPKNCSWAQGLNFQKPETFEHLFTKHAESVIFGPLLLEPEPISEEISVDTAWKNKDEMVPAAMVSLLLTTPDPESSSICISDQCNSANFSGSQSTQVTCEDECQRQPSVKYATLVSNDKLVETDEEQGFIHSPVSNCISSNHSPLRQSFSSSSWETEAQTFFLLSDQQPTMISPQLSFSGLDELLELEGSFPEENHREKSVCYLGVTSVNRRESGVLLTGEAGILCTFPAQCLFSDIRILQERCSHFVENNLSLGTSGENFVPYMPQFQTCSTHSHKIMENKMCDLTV

B1: human leptin L39A/D40A/F41A/I42A mutant, P41159 22-167 (ligand)
chain: VPIQKVQDDTKTLIKTIVTRINDISHTQSVSSKQKVTGAAAAPGLHPILTLSKMDQTLAVYQQILTSMPSRNVIRISNDLENLRDLLHVLAFSKSCHLPWASGLETLDSLGGVLEASGYSTEVVALSRLQGSLQDMLWQLDLSPGC
  inhibition of leptin-inducible transactivation of luciferase reporting gene in CHO cells transiently transfected with leptin receptor, stimulated with 6.25 nM human leptin: 10 nM
